Test results: IntAct's records for PubMed 19762560

B1: Synphilin-1 (Homo sapiens), Q9Y6H5 (parent)
chain: MEAPEYLDLDEIDFSDDISYSVTSLKTIPELCRRCDTQNEDRSVSSSSWNCGISTLITNTQKPTGIADVYSKFRPVKRVSPLKHQPETLENNESDDQKNQKVVEYQKGGESDLGPQPQELGPGDGVGGPPGKSSEPSTSLGELEHYDLDMDEILDVPYIKSSQQLASFTKVTSEKRILGLCTTINGLSGKACSTGSSESSSSNMAPFCVLSPVKSPHLRKASAVIHDQHKLSTEETEISPPLVKCGSAYEPENQSKDFLNKTFSDPHGRKVEKTTPDCQLRAFHLQSSAAESKPEEQVSGLNRTSSQGPEERSEYLKKVKSILNIVKEGQISLLPHLAADNLDKIHDENGNNLLHIAASQGHAECLQHLTSLMGEDCLNERNTEKLTPAGLAIKNGQLECVRWMVSETEAIAELSCSKDFPSLIHYAGCYGQEKILLWLLQFMQEQGISLDEVDQDGNSAVHVASQHGYLGCIQTLVEYGANVTMQNHAGEKPSQSAERQGHTLCSRYLVVVETCMSLASQVVKLTKQLKEQTVERVTLQNQLQQFLEAQKSEGKSLPSSPSSPSSPASRKSQWKSPDADDDSVAKSKPGVQEGIQVLGSLSASSRARPKAKDEDSDKILRQLLGKEISENVCTQEKLSLEFQDAQASSRNSKKIPLEKRELKLARLRQLMQRSLSESDTDSNNSEDPKTTPVRKADRPRPQPIVESVESMDSAESLHLMIKKHTLASGGRRFPFSIKASKSLDGHSPSPTSESSEPDLESQYPGSGSIPPNQPSGDPQQPSPDSTAAQKVATSPKSALKSPSSKRRTSQNLKLRVTFEEPVVQMEQPSLELNGEKDKDKGRTLQRTSTSNESGDQLKRPFGAFRSIMETLSGNQNNNNNYQAANQLKTSTLPLTSLGRKTDAKGNPASSASKGKNKAA

Variants of: B1
Settings: with syua_human SNCA

Effect of a mutation on the interaction, decreasing interaction:
A519N
V523N
K524A
K527A
